Patent publication US20170081400A1 (CEPHALON, published 2017)
Numbering of substitutions follows the chain as printed.

T1: human TL1A extracellular domain with N-terminal HIS and FLAG tag (human, UniProt O95150 72-251)
T1 construct: whole entry named. ~70 kDa fraction purified by gel filtration
T1 sequence: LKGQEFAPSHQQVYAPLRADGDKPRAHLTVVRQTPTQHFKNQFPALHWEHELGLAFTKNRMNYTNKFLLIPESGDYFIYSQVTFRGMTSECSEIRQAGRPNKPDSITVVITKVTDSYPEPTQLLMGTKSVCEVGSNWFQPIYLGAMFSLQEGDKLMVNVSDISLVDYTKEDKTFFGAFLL

T2: human TL1A extracellular domain with N-terminal HIS and FLAG tag (human) (UniProt O95150)
T2 sequence: T1 sequence

T3: human TL1A extracellular domain with N-terminal HIS and FLAG tag (human, UniProt O95150 72-251)
T3 construct: the whole entry is named; also called TNFSF15
T3 sequence: T1 sequence

B1: 320-193 (antibody, human IgG1, name in Kabat numbering, V domains shown)
VH: QVQLVQSGAEVKKPGASVKVSCKASGYTFTSYDINWVRQAPGQGLEWMGWLNPNSGNTGYAQKFQGRVTMTADRSTSTAYMELSSLRSEDTAVYYCAREVPETAAFEYWGQGTLVTVSS
VL: QSVLTQPPSVSGAPGQRVTISCSSSSSDIGAGLGVHWYQQLPGTAPKLLIEGYYNRPSGVPDRFSGSKSGTSASLTITGLLPEDEGDYYCQSYDGTLSALFGGGTKLTVLG
notes: human IgG1, lambda
B2: 320-194 (antibody, human IgG1, name in Kabat numbering, V domains shown)
VH: B1 VH
VL: B1 VL with S23Q
notes: human IgG1, lambda
B3: 320-197 (antibody, human IgG1, name in Kabat numbering, V domains shown)
VH: B1 VH
VL: B1 VL with S23K
notes: human IgG1, lambda
B4: 320-199 (antibody, human IgG1, name in Kabat numbering, V domains shown)
VH: B1 VH
VL: B1 VL with S23W
notes: human IgG1, lambda
B5: 320-201 (antibody, human IgG1, name in Kabat numbering, V domains shown)
VH: B1 VH
VL: B1 VL with S23T, S24A
notes: human IgG1, lambda
B6: 320-203 (antibody, human IgG1, name in Kabat numbering, V domains shown)
VH: B1 VH
VL: B1 VL with S23T, S24D
notes: human IgG1, lambda
B7: 320-205 (antibody, human IgG1, name in Kabat numbering, V domains shown)
VH: B1 VH
VL: B1 VL with S23T, S24K
notes: human IgG1, lambda
B8: 320-211 (antibody, human IgG1, name in Kabat numbering, V domains shown)
VH: B1 VH
VL: B1 VL with S23T, S25D
notes: human IgG1, lambda
B9: 320-213 (antibody, human IgG1, name in Kabat numbering, V domains shown)
VH: B1 VH
VL: B1 VL with S23T, S25K
notes: human IgG1, lambda
B10: 320-218 (antibody, human IgG1, name in Kabat numbering, V domains shown)
VH: B1 VH
VL: B1 VL with S23T, S26Q
notes: human IgG1, lambda
B11: 320-221 (antibody, human IgG1, name in Kabat numbering, V domains shown)
VH: B1 VH
VL: B1 VL with S23T, S26K
notes: human IgG1, lambda
B12: 320-233 (antibody, human IgG1, name in Kabat numbering, V domains shown)
VH: B1 VH
VL: B1 VL with S23T, D28A
notes: human IgG1, lambda
B13: 320-236 (antibody, human IgG1, name in Kabat numbering, V domains shown)
VH: B1 VH
VL: B1 VL with S23T, D28H
notes: human IgG1, lambda
B14: 320-237 (antibody, human IgG1, name in Kabat numbering, V domains shown)
VH: B1 VH
VL: B1 VL with S23T, D28K
notes: human IgG1, lambda
B15: 320-601 (antibody, human IgG1, name in Kabat numbering, V domains shown)
VH: B1 VH with N57Y
VL: B1 VL with S23T, Y93F
notes: full-length human IgG1, lambda
B16: 320-605 (antibody, human IgG1, name in Kabat numbering, V domains shown)
VH: B1 VH with N57Y
VL: B1 VL with S23T, G32A, Y93F
notes: as for B15
B17: 320-611 (antibody, human IgG1, name in Kabat numbering, V domains shown)
VH: B1 VH with N57Y
VL: B1 VL with S23T, Y93W, G95K
notes: as for B15
B18: 320-612 (antibody, human IgG1, name in Kabat numbering, V domains shown)
VH: B1 VH
VL: B1 VL with S23T, Y93W, G95Y
notes: as for B15
B19: 320-613 (antibody, human IgG1, name in Kabat numbering, V domains shown)
VH: B1 VH with N57Y
VL: B1 VL with S23T, Y93W, G95Y
notes: as for B15
B20: 320-614 (antibody, human IgG1, name in Kabat numbering, V domains shown)
VH: B1 VH with N57Y
VL: B1 VL with S23T, G95K
notes: as for B15
B21: 320-615 (antibody, human IgG1, name in Kabat numbering, V domains shown)
VH: B1 VH with N57Y
VL: B1 VL with S23T, G95Y
notes: as for B15
B22: 320-616 (antibody, human IgG1, name in Kabat numbering, V domains shown)
VH: B1 VH with N57Y
VL: B1 VL with S23T, G95A
notes: as for B15

Legend:
[1] = target: T1, human TL1A extracellular domain with …; experiment: SPR run 2; supernatant on Protein A; TL1A 10 ug/mL; timepoint 44
Procedure, shortened: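 Biacore T200 SPR with antibody (supernatant or Protein A-purified) captured on Protein A amine-coupled to a CM5 chip; capture level recorded as response change at end of capture.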

[2] = target: T1, human TL1A extracellular domain with …; experiment: SPR run 2; purified antibody on Protein A; TL1A 10 ug/mL; timepoint 590
From the text: (§1) 1.5. Antibody expression and antigen binding as determined by SPR. Using a CM5 sensor chip (GE Healthcare) Protein A (Pierce) was coupled to the chip surface using an amine coupling kit (GE Healthcare). Protein A was coupled on flow cell 1 and 2 (or alternatively 3 and 4) using a BIACORE® T200. […] The amount of supernatant or purified protein (as well as the concentration) injected during the capture stage varied between runs and is specified in the header of the Tables 3-11. At the end of injection of the supernatant or purified antibody the change in response units was measured. This value was reported as Capture Level in Tables 3-11. […] The response units were measured prior to the end of the dissociation phase. […] The sensorgrams were double referenced (flow cell 2 is subtracted from flow cell 1 and a buffer blank). As there were a large number of antibody variants to screen, these were screened across different runs (Tables 3-11). […] A summary of the conditions used in each run is below:
(§2) 2.1. […] In some experiment the antibodies were purified using Protein A chromatography (See 1.4) and purified antibodies were used in BIACORE® (GE Healthcare) experiments.

[3] = target: T1, human TL1A extracellular domain with …; experiment: SPR run 2; supernatant on Protein A; TL1A 10 ug/mL; timepoint 220
Procedure, shortened: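 Surface plasmon resonance on a Biacore T200 was used, with variants spread over several runs. Antibodies were captured via immobilized Protein A, and their capture level was recorded. Sensorgrams were double-referenced, and the antigen response was read near the end of dissociation.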

[4] = target: T1, human TL1A extracellular domain with …; experiment: SPR run 2; purified antibody on Protein A; TL1A 10 ug/mL; timepoint 44
From the text: as §1, §2

[5] = target: T2, human TL1A extracellular domain with N-terminal HIS and FLAG tag (human); experiment: cell-based or functional assay
[6] = target: T3, human TL1A extracellular domain with …; experiment: SPR Run 9, antibody on Protein A, TL1A 5 ug/mL, timepoint 44
From the text: as §1, §2

[7] = target: T3, human TL1A extracellular domain with …; experiment: SPR Run 9, antibody on Protein A, TL1A 5 ug/mL, timepoint 590
From the text: as §1, §2

[8] = target: T3, human TL1A extracellular domain with …; experiment: cell-based or functional assay

Binder | TL1A Binding Level (Early) [1] [RU] | TL1A Binding Level (Late) [2] [RU] | TL1A Binding Level (Late) [3] [RU] | TL1A Binding Level (Early) [4] [RU] | Antibody IC50, TL1A induced caspase potency assay in TF-1 cells [5] [µg/mL] | Fold improvement over 320-179, TL1A induced caspase potency assay in TF-1 cells [5] [fold] | TL1A Binding Level (Early) [6] [RU] | TL1A Binding Level (Late) [7] [RU] | Antibody IC50, TL1A induced caspase potency assay in TF-1 cells [8] [µg/mL] | Fold improvement over 320-179, TL1A induced caspase potency assay in TF-1 cells [8] [fold]
B1 | 249 | 91 | 227 | 103 |  |  |  |  |  | 
B2 | 247 | 64 | 226 | 76 |  |  |  |  |  | 
B3 | 255 | 94 | 232 | 105 |  |  |  |  |  | 
B4 | 251 | 85 | 233 | 97 |  |  |  |  |  | 
B5 | 274 | 57 | 252 | 73 | 0.005 | 2 |  |  |  | 
B6 | 61 | 35 | 24 | 65 |  |  |  |  |  | 
B7 | 290 | 51 | 271 | 70 | 0.02 | 2 |  |  |  | 
B8 | 206 | 64 | 164 | 80 | 0.01 | 3 |  |  |  | 
B9 | 218 | 65 | 194 | 79 | 0.07 | 0 |  |  |  | 
B10 | 239 | 80 | 218 | 92 |  |  |  |  |  | 
B11 | 225 | 89 | 207 | 99 |  |  |  |  |  | 
B12 | 255 | 16 | 235 | 48 |  |  |  |  |  | 
B13 | 254 | 6 | 232 | 5 |  |  |  |  |  | 
B14 | 240 | 8 | 221 | 10 |  |  |  |  |  | 
B15 |  |  |  |  |  |  | 121 | 120 | 0.002 | 10
B16 |  |  |  |  |  |  | 125 | 120 |  | 
B17 |  |  |  |  |  |  | 125 | 127 | 0.005 | 8
B18 |  |  |  |  |  |  | 126 | 120 |  | 
B19 |  |  |  |  |  |  | 135 | 131 | 0.01 | 4
B20 |  |  |  |  |  |  | 122 | 111 |  | 
B21 |  |  |  |  |  |  | 113 | 108 |  | 
B22 |  |  |  |  |  |  | 120 | 112 |  | 
